From patent US10925971B2, “Methods of treating PRLR positive breast cancer” (Regeneron Pharmaceuticals, Inc., priority 2016, dated 2021)

Legend:
[1] = molecular target: T1, monomeric human PRLR (hPRLR.mmh; SEQ ID NO:401) (Homo sapiens, UniProt P16471); test: Surface plasmon resonance (Biacore T200), antibody-capture format; type: binding; conditions: analyte hPRLR.mmh
T1 construct: soluble monomeric (hPRLR.mmh); mmh (myc-myc-hexahistidine) (C)
How it was run: (§1)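 Antibodies (human IgG1 Fc) captured on an anti-human Fc sensor surface; soluble monomeric (.mmh) or dimeric (.mFc) PRLR injected as analyte. ka and kd obtained by fitting to a 1:1 binding model.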

[2] = molecular target: T2, dimeric human PRLR (hPRLR.mFc; SEQ ID NO:402) (Homo sapiens, UniProt P16471); test: as above; type: binding; conditions: analyte hPRLR.mFc
T2 construct: dimeric (hPRLR.mFc)
How it was run: as §1

[3] = test system: Macaca fascicularis PRLR (mfPRLR.mmh; SEQ ID NO:403); test: as above; type: binding; conditions: analyte mfPRLR.mmh
How it was run: as §1

[4] = molecular target: T3, human PRLR on HEK293/hPRLR cells (Homo sapiens, UniProt P16471); test: FACS cell surface binding
T3 construct: HA; expressed in transfected cells; host or cells: HEK293
T3 sequence (P16471 25-622): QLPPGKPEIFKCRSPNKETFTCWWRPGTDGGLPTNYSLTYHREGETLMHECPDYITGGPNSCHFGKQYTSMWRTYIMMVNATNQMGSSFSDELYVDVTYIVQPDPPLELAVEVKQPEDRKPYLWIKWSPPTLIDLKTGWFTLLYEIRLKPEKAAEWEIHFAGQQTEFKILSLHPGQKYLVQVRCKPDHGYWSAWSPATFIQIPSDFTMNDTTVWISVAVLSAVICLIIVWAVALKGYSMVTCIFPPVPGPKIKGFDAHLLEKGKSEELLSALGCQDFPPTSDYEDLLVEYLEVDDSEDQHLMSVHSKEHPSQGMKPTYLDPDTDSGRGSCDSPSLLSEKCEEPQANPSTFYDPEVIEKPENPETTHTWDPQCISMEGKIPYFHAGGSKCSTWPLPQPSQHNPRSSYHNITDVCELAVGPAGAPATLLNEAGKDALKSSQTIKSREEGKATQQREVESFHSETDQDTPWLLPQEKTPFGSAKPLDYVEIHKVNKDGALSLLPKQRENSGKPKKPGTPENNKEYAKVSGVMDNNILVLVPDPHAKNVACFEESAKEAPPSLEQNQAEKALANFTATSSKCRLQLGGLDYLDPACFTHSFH
How it was run: (§2)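 Flow cytometry: 1×10^5 cells/sample; primary Ab 10 μg/ml, 30 min on ice; 2 washes; PE anti-human 2° 10 μg/ml, 30 min on ice. Cells were HEK293 stably expressing HA-tagged PRLR of the given species, or untransfected HEK293. Readout was MFI fold over isotype.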

[5] = molecular target: T4, mouse PRLR on HEK293/mPRLR cells (Mus musculus, UniProt Q08501); test: FACS cell surface binding
T4 construct: HA; expressed in transfected cells; host or cells: HEK293
T4 sequence (Q08501 20-608): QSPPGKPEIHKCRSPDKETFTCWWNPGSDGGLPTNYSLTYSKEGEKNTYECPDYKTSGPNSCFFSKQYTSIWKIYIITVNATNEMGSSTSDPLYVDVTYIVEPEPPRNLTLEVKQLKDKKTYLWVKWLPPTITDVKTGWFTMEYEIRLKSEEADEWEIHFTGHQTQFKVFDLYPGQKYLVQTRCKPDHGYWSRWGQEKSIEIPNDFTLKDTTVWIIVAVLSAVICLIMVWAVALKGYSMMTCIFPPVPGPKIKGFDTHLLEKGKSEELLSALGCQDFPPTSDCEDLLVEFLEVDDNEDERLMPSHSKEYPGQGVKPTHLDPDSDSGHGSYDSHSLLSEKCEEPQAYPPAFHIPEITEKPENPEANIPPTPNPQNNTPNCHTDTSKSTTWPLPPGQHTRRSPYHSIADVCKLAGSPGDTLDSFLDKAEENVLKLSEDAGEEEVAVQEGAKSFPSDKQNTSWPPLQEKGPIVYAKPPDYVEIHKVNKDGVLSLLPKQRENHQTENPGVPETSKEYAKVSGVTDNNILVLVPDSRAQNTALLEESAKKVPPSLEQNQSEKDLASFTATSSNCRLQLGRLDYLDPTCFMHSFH
How it was run: as §2

[6] = molecular target: T5, native PRLR expressing T47D cells (Homo sapiens, UniProt P16471); test: FACS cell surface binding
T5 construct: a native PRLR expressing cell line (T47D); endogenous in cells; host or cells: T47D
T5 sequence (P16471 25-622): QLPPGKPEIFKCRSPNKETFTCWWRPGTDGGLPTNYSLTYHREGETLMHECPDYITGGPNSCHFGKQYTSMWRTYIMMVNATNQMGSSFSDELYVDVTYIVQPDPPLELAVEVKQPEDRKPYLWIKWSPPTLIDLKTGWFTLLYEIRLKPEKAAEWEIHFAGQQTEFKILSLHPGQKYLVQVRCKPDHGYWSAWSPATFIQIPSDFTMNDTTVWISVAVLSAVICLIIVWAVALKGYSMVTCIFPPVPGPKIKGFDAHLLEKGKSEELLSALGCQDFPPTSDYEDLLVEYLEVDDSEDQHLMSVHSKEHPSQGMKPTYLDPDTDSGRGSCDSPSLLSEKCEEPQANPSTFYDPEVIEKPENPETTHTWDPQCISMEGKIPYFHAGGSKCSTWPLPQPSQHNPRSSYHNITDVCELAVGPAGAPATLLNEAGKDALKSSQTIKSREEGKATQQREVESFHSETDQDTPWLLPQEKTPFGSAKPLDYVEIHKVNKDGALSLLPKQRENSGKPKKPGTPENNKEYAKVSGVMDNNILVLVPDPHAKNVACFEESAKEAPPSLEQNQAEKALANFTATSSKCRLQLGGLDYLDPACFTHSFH
How it was run: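 Binding expressed as mean fluorescence fold change above isotype background, measured by FACS after 30 min on ice with 10 μg/ml antibody and PE-conjugated anti-human detection. T47D, which natively expresses PRLR, tested with engineered HEK293/hPRLR and non-expressing HEK293 cells.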

HEK293 parental cells = test: FACS cell surface binding; parameters: species or system human
How it was run: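 Values are mean fluorescence intensity relative to an isotype control (background). Antibodies at 10 μg/ml were incubated on ice for 30 min with HEK293 lines stably overexpressing HA-tagged species PRLR or with parental cells. A PE-conjugated anti-human secondary was used for detection.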

T2 sequence (P16471 with tags, fused parts or gaps): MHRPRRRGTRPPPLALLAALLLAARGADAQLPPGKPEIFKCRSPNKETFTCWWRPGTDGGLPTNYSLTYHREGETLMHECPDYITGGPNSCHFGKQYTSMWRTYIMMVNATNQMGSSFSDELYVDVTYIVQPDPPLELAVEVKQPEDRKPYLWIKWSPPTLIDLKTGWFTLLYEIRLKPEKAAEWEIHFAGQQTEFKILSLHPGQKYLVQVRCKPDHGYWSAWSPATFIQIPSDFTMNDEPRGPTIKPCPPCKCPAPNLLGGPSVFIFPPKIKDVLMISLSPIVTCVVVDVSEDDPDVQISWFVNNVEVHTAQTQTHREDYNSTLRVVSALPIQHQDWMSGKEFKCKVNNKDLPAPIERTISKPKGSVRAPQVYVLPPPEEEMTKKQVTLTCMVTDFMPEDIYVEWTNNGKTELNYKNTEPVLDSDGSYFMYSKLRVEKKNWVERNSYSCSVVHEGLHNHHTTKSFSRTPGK
T1 sequence (P16471 with tags, fused parts or gaps): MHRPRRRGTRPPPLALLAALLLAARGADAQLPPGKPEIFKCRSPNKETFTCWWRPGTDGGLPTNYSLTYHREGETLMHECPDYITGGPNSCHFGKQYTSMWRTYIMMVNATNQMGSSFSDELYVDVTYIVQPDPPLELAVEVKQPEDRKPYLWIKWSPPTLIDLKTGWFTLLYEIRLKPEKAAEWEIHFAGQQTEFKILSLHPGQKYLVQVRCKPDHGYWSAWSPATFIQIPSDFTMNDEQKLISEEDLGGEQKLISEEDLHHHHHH
Chain of Macaca fascicularis PRLR (mfPRLR.mmh; SEQ ID NO:403) (as listed by the source): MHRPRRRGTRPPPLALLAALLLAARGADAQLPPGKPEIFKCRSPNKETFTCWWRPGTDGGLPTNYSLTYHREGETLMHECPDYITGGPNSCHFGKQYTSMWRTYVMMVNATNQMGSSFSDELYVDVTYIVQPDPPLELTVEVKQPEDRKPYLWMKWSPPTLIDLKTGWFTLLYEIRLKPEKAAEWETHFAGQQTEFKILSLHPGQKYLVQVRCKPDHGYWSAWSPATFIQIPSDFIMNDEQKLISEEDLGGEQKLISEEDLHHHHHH

Molecule | ka ([1]; 25° C.) [M/s] | kd ([1]; 25° C.) [s⁻¹] | ka ([1]; 37° C.) [M/s] | kd ([1]; 37° C.) [s⁻¹] | ka ([2]; 25° C.) [M/s] | kd ([2]; 25° C.) [s⁻¹] | ka ([2]; 37° C.) [M/s] | kd ([2]; 37° C.) [s⁻¹] | ka ([3]; 25° C.) [M/s] | kd ([3]; 25° C.) [s⁻¹] | ka ([3]; 37° C.) [M/s] | kd ([3]; 37° C.) [s⁻¹] | FACS Cell Binding [4] [Fold Above Background] | FACS Cell Binding [5] [Fold Above Background] | FACS Cell Binding [6] [Fold Above Background] | FACS Cell Binding (HEK293 parental cells) [Fold Above Background]
H1H6797P: fully human anti-PRLR antibody, human IgG1 Fc; HCVR/LCVR SEQ ID NOs 178/186 (antibody, V domains shown) VH: EVQLVESGGGLVQPGGSLRLSCIVSGFTFSGSWMSWVRQLPGKGLEWVANIKEDGSDSYYVDSVEGRFTISRDNAKSSLYLQMNSLRVDDTAVYFCARARTVPLHYWGQGTLVTVSS VL: DIQMTQSPSTLSASVGDRVTITCRASQSINIWLAWYQQKPGKAPKLLIYRASYLESGVPSSFAGGGSGTEFTLTISSLQPDDFGTYYCQHYNSYPFTFGQGTKLEIK | 1.13e+06 | 0.00196 | 1.29e+06 | 0.00822 | 982000 | 0.000119 | 1.8e+06 | 0.000125 | 670000 | 0.00209 | 914000 | 0.00906 | 1 | 2 | 38 | 1
H1H6795P: fully human anti-PRLR antibody, human IgG1 Fc; HCVR/LCVR SEQ ID NOs 162/170 (antibody, V domains shown) VH: QVQLVQSGAEVKKPGASVKVSCKASGYTFGTSGITWVRQAPGQGLEWMGWSSAYNGKTDYAQKFQDRVTMTTDTSTTTGYMEMRSLTSDDTAVYYCTTVVRRPFDFWGQGTLVTVSS VL: DIQMTQSPSSLSASVGDRVTITCRASQDINNFLAWFQQKPGKAPKSLIYAASSLQSGVPSKFSGGGSGTDFALTISSLQPEDFATYYCQQYSSYPITFGQGTRLEIK | 1.17e+06 | 0.00177 | 1.36e+06 | 0.0052 | 1.54e+06 | 8.41e-05 | 1.94e+06 | 7.77e-05 | 844000 | 0.00197 | 973000 | 0.00599 | 1 | 1 | 34 | 1
H1H6774P: fully human anti-PRLR antibody, human IgG1 Fc; HCVR/LCVR SEQ ID NOs 34/42 (antibody, V domains shown) VH: EVQLVESGGGLAQPGGSLRLSCVASGFTFSTYWMSWVRQAPGKGLDWVGNIKQDGSEQNYVDSVRGRFTISRDNAKNSLFLQMNSLRAEDTGVYYCATLLTKGDYWGQGTLVTVSS VL: DIQMTQSPSSLSASVGDSVTITCRASQDISNYLDWFQQKPGKAPKSLIYAASILQGGVPSRFSGSGYGTDFTLTISSLQPEDFATYYCRQYKTYPFTFGPGTKVDIK | 715000 | 0.000818 | 1.07e+06 | 0.00317 | 798000 | 8.94e-05 | 1.41e+06 | 0.000194 | 495000 | 0.000875 | 723000 | 0.00361 | 1 | 1 | 39 | 1
H1H6953N: anti-PRLR antibody, human IgG1 Fc form of H1M6953N of Table 1; HCVR/LCVR SEQ ID NOs 274/282 (antibody, V domains shown) VH: EVQLLESGGGLVQPGGTLRLSCAASGFTFSAYAMSWVRQAPGKGLEWVSSINVRAGDTYYADSVKGRFTISRDNSKNTLFLLMNSLRAEDTAAYYCAKARYSSNWGFDFWGQGTLVTVSS VL: DIVMTQSPDSLTVSLGARTTINCQSSQTILHSSNNHNYLAWYQQKPGLPPKLLIYWSSTRESGVPDRFSGSGSGTDFTLTISSLQAEDVAIYYCQQYSNTPYTFGQGTKLEIN | 792000 | 0.000212 | 1.1e+06 | 0.00122 | 711000 | 4.77e-05 | 1.47e+06 | 0.00017 | 727000 | 0.000319 | 947000 | 0.00256 | 37 | 2 | 40 | 2
H1H6782P: fully human anti-PRLR antibody, non-blocking; HCVR/LCVR SEQ ID NOs 66/74 (antibody, V domains shown) VH: EVQLVESGGGLVQPGRSLRLSCAASGFTFDDYAMHWVRQAPGKGLEWVSGIIWNSGHIGYGDSVKGRFTISRDNAKKSLYLQMNSLRAEDTALYYCARDSGRYQSYFDYWGQGTLVTVSS VL: DIQMTQSPSTLSASVGDRVTITCRASHIISSWLAWYQQKPGKAPKVLIFKASSLESGVPSRFSGSGSGTEFTLTISSLQPDDFATYYCQQYNTYSRTFGQGTKVEIK | 360000 | 0.000247 | 557000 | 0.000716 | 317000 | 7.13e-05 | 598000 | 0.00013 | 266000 | 0.000279 | 385000 | 0.000767 | 41 | 4 | 43 | 3
